No end group written: not given here.
Experiments:
human RXFP3 [1] = target: T1, human RXFP3 (Homo sapiens, UniProt Q9NSD7); assay: Receptor binding assay, competition with NanoLuc-conjugated R3/I5 tracer; details: for pIC50 RXFP3: HEK293T cells transiently overexpressing human RXFP3, 0.5 nM NanoLuc-conjugated R3/I5 tracer, 21 °C, 2 h, mean ± SE, n = 3, SEM; for fold lower binding potency towards RXFP3 compared with wild-type INSL5: lower than wild-type INSL5
T1 construct: expressed in transfected cells; host or cells: HEK293T
T1 sequence (Q9NSD7 1-469): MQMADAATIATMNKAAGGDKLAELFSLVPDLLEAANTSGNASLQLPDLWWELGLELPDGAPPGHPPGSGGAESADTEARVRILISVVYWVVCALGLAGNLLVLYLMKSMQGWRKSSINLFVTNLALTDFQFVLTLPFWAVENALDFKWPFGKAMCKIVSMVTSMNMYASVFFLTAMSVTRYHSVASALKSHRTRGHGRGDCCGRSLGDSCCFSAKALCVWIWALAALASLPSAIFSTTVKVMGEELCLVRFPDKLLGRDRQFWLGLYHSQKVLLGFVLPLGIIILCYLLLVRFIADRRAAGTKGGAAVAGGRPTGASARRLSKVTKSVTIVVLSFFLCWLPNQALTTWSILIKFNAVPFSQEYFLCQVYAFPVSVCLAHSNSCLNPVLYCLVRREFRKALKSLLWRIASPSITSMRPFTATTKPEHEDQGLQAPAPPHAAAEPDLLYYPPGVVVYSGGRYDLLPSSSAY
Protocol: (§1) Figure 3 Receptor binding activities of the mature INSL5 and R3/I5 mutants towards RXFP3 and RXFP4. A NanoLuc-conjugated R3/I5 peptide was used as tracer and HEK293T cells transiently overexpressing human RXFP3 or human RXFP4 were used as receptor source. The tracer concentration used in these assays was 0.5 nM. The nonspecific binding was obtained by competition with 1.0 μM of relaxin-3. The measured data were expressed as mean ± SE (n = 3) and fitted to sigmoidal curves using the software SigmaPlot 10.0.
(§2) The receptor binding assays of the mature INSL5 and R3/I5 mutants were carried out using a NanoLuc-conjugated R3/I5 peptide as tracer and the human embryonic kidney (HEK) 293T cells transiently overexpressing human RXFP3 or human RXFP4 as receptor source. Nonspecific binding was obtained by competition with 1.0 μM of human relaxin-3. Briefly, HEK293T cells were transiently transfected with the expression construct of human RXFP3 or human RXFP4. Next day, the transfected cells were trypsinised, seeded into a 96-well plate, and continuously cultured for 24–36 h to confluence. To start binding assay, the medium was removed and the binding solution (serum-free DMEM medium plus 1% bovine serum albumin) containing 0.5 nM of the NanoLuc-conjugated R3/I5 tracer and varied concentrations of competitor was added (100 μl/well). After incubation at 21 °C for 2 h, the binding solution was removed and the cells were washed twice by ice-cold phosphate-buffered saline (200 μl/well for each wash). Thereafter, the cells were lysed by lysis solution (100 μl/well, from Promega, Madison, WI, USA) and the cell lysate was transferred to a white opaque 96-well plate (50 μl/well). After mixing with the freshly diluted substrate (50 μl/well), bioluminescence was immediately measured on a SpectraMax M5 plate reader (Molecular Devices, Sunnyvale, CA, USA) using the luminescence mode. The measured bioluminescence data were expressed as mean ± SE (n = 3) and fitted to sigmoidal curves using the SigmaPlot10.0 software.

human RXFP4 [2] = target: T2, human RXFP4 (Homo sapiens, UniProt Q8TDU9); assay: as above; details: for pIC50 RXFP4: HEK293T cells transiently overexpressing human RXFP4, 0.5 nM NanoLuc-conjugated R3/I5 tracer, 21 °C, 2 h, mean ± SE, n = 3, SEM; for fold lower binding potency towards RXFP4 compared with wild-type INSL5: lower than wild-type INSL5
T2 construct: expressed in transfected cells; host or cells: HEK293T
Protocol: as §1, §2

human RXFP3 [3] = target: T1, human RXFP3; assay: Receptor activation assay, CRE-controlled NanoLuc reporter; format: cell-based; details: for pEC50 RXFP3: HEK293T cells cotransfected with human RXFP3 and CRE-controlled NanoLuc reporter, 1.0 μM forskolin, 37 °C, 4 h, mean ± SE, n = 3, N.D., not detectable; for activation potency towards RXFP3, result in words: CRE-controlled NanoLuc reporter, HEK293T cells, human RXFP3
Protocol: (§3) Figure 4 Receptor activation activities of the mature INSL5 and R3/I5 mutants towards RXFP3 and RXFP4. HEK293T cells transiently cotransfected by human RXFP3 or human RXFP4 and a CRE-controlled NanoLuc reporter were used for the activation assays. The measured data were expressed as mean ± SE (n = 3) and fitted to sigmoidal or linear curves using the software SigmaPlot 10.0.
(§4) The receptor activation assays of the mature INSL5 and R3/I5 mutants were carried out using a cAMP-response element (CRE)-controlled NanoLuc reporter according to our previous procedure. Briefly, HEK293T cells were transiently cotransfected with the expression construct of human RXFP3 or human RXFP4 and the CRE-controlled NanoLuc reporter vector pNL1.2/CRE. Next day, the transfected cells were trypsinised, seeded into a 96-well plate, and continuously cultured for 24–36 h to ~90% confluence. To start activation assay, the medium was removed and the activation solution (serum-free DMEM medium plus 1% bovine serum albumin) containing 1.0 μM of forskolin and varied concentrations of peptide was added (100 μl/well). After being continuously cultured at 37 °C for 4 h, the activation solution was removed and the cells were lysed by lysis solution (100 μl/well, from Promega). The cell lysate was then transferred to a white opaque 96-well plate (50 μl/well), mixed with the freshly diluted substrate (50 μl/well), and bioluminescence was immediately measured on a SpectraMax M5 plate reader (Molecular Devices) using the luminescence mode. The measured bioluminescence data were expressed as mean ± SE (n = 3) and fitted to sigmoidal or linear curves using the SigmaPlot10.0 software.

human RXFP4 [4] = target: T2, human RXFP4; assay: as above; format: cell-based; details: for pEC50 RXFP4: HEK293T cells cotransfected with human RXFP4 and CRE-controlled NanoLuc reporter, 1.0 μM forskolin, 37 °C, 4 h, mean ± SE, n = 3, SEM; for fold lower activation potency towards RXFP4 compared with INSL5: lower than wild-type INSL5
Protocol: as §3, §4

T2 sequence (Q8TDU9 whole entry): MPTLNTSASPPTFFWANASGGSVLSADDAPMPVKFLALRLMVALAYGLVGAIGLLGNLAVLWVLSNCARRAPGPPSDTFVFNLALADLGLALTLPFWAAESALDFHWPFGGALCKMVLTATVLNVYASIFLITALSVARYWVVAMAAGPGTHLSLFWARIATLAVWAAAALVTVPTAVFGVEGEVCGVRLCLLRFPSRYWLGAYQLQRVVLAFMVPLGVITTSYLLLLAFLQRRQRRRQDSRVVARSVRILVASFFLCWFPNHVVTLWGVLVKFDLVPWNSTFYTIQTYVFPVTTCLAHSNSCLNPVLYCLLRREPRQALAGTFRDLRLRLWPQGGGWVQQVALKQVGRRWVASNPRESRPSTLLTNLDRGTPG

## [L(B9)R,Y(B17)F]INSL5: recombinant mature two-chain INSL5 mutant (Insulin-like peptide INSL5 B … KESVRLCGREYIRTVIFICASSRW; Insulin-like peptide INSL5 A … QDLQTLCCTDGCSMTDLSALC; ends and bridges not checked; cysteine pairing not given here; UniProt Q9Y5Q6 23-46; Q9Y5Q6 115-135, looked up, variant L9R Y17F)
Human RXFP3 [1]
  pIC50 RXFP3: 8.17 ± 0.04
Human RXFP4 [2]
  pIC50 RXFP4: 7.33 ± 0.03
  fold lower binding potency towards RXFP4 compared with wild-type INSL5: ~ 3 fold
Human RXFP3 [3]
  pEC50 RXFP3: <6
Human RXFP3 [3]; lower than parent mutants [L(B9)R]INSL5 and [Y(B17)F]INSL5
  fold lower activation potency towards RXFP3 than its parent mutants: ~ 10 fold
Human RXFP4 [4]
  pEC50 RXFP4: 9.20 ± 0.03

## [L(B9)R]INSL5: recombinant mature two-chain INSL5 mutant (Insulin-like peptide INSL5 B … KESVRLCGREYIRTVIYICASSRW; Insulin-like peptide INSL5 A … QDLQTLCCTDGCSMTDLSALC; ends and bridges not checked; cysteine pairing not given here; UniProt Q9Y5Q6 23-46; Q9Y5Q6 115-135, looked up, variant L9R)
Human RXFP3 [1]
  pIC50 RXFP3: 7.87 ± 0.04
Human RXFP3 [1]; higher than wild-type INSL5
  fold higher binding potency towards RXFP3 than wild-type INSL5: ~ 4 fold
Human RXFP4 [2]
  pIC50 RXFP4: 7.85 ± 0.03
Human RXFP3 [3]; SEM
  pEC50 RXFP3: 7.21 ± 0.04
Human RXFP4 [4]
  pEC50 RXFP4: 9.87 ± 0.04

## R3/I5: chimeric peptide containing the B-chain of relaxin-3 and the A-chain of INSL5 [reference compound]
Human RXFP3 [1]
  pIC50 RXFP3: 8.85 ± 0.02
Human RXFP4 [2]
  pIC50 RXFP4: 8.24 ± 0.03
Human RXFP3 [3]; SEM
  pEC50 RXFP3: 10.44 ± 0.03
Human RXFP4 [4]
  pEC50 RXFP4: 10.32 ± 0.03

## [T(B14)A]INSL5: recombinant mature two-chain INSL5 mutant (Insulin-like peptide INSL5 B … KESVRLCGLEYIRAVIYICASSRW; Insulin-like peptide INSL5 A … QDLQTLCCTDGCSMTDLSALC; ends and bridges not checked; cysteine pairing not given here; UniProt Q9Y5Q6 23-46; Q9Y5Q6 115-135, looked up, variant T14A)
Human RXFP3 [1]
  pIC50 RXFP3: 7.06 ± 0.03
Human RXFP4 [2]
  pIC50 RXFP4: 7.57 ± 0.05
Human RXFP3 [3]
  activation potency towards RXFP3, result in words: no detectable activation potency
Human RXFP4 [4]
  pEC50 RXFP4: 9.05 ± 0.04

## [Y(B17)F]INSL5: recombinant mature two-chain INSL5 mutant (Insulin-like peptide INSL5 B … KESVRLCGLEYIRTVIFICASSRW; Insulin-like peptide INSL5 A … QDLQTLCCTDGCSMTDLSALC; ends and bridges not checked; cysteine pairing not given here; UniProt Q9Y5Q6 23-46; Q9Y5Q6 115-135, looked up, variant Y17F)
Human RXFP3 [1]
  pIC50 RXFP3: 6.77 ± 0.05
  fold lower binding potency towards RXFP3 compared with wild-type INSL5: ~ 3 fold
Human RXFP4 [2]
  pIC50 RXFP4: 7.23 ± 0.03
  fold lower binding potency towards RXFP4 compared with wild-type INSL5: ~ 3 fold
Human RXFP3 [3]; SEM
  pEC50 RXFP3: 6.83 ± 0.08
Human RXFP4 [4]
  pEC50 RXFP4: 8.40 ± 0.09
  fold lower activation potency towards RXFP4 compared with INSL5: ~ 9 fold

## [A(B20)G,S(B21)G]INSL5: recombinant mature two-chain INSL5 mutant (Insulin-like peptide INSL5 B … KESVRLCGLEYIRTVIYICGGSRW; Insulin-like peptide INSL5 A … QDLQTLCCTDGCSMTDLSALC; not fully specified; ends and bridges not checked; UniProt Q9Y5Q6 23-46; Q9Y5Q6 115-135, looked up, variant A20G S21G)
Human RXFP3 [1]
  pIC50 RXFP3: 6.01 ± 0.06
  fold lower binding potency towards RXFP3 compared with wild-type INSL5: ~ 18 fold
Human RXFP4 [2]
  pIC50 RXFP4: 6.39 ± 0.05
  fold lower binding potency towards RXFP4 compared with wild-type INSL5: ~ 23 fold
Human RXFP3 [3]; SEM
  pEC50 RXFP3: 6.90 ± 0.04
Human RXFP3 [3]; lower than relaxin-3
  fold lower activation potency towards RXFP3 than relaxin-3: ~ 5000 fold
Human RXFP4 [4]
  pEC50 RXFP4: 8.59 ± 0.05
  fold lower activation potency towards RXFP4 compared with INSL5: ~ 6 fold

## insulin-like peptide 5 (Insulin-like peptide INSL5 B … KESVRLCGLEYIRTVIYICASSRW; Insulin-like peptide INSL5 A … QDLQTLCCTDGCSMTDLSALC; UniProt Q9Y5Q6 23-46; Q9Y5Q6 115-135, looked up) [recombinant mature two-chain human INSL5, cognate agonist of RXFP4, reference compound]
Human RXFP3 [1]
  pIC50 RXFP3: 7.26 ± 0.05
Human RXFP3 [1]; lower than relaxin-3
  fold lower binding affinity for RXFP3 than relaxin-3: ~ 27 fold
Human RXFP4 [2]
  pIC50 RXFP4: 7.75 ± 0.02
Human RXFP3 [3]
  activation potency towards RXFP3, result in words: no detectable activation potency
Human RXFP4 [4]
  pEC50 RXFP4: 9.36 ± 0.06

From paper PMC4939597, “Mechanism for insulin-like peptide 5 distinguishing the homologous relaxin family peptide receptor 3 and 4” (Scientific Reports, 2016)
